Experimental data reported in article PMC8563363.

Experiments:
[1] = molecular target: trimeric cohesin (SMC1, SMC3-FLAG, SCC1(TEV)-Halo-His14) (human) (UniProt Q14683); test: high-speed atomic force microscopy
NIPBL (human) = NIPBL (human) (UniProt Q6KC79); test: high-speed atomic force microscopy

Substance “NIPBL (from UniProt Q6KC79 1-2804) (natural protein)” has a stoichiometry N [1] of 1.

NIPBL, Q6KC79 1-2804 gave a stoichiometry N (NIPBL (human)) of 2.
